Data reported in the Human Domainome abundance scans (Beltran et al. 2025).

B1: Homeobox expressed in ES cells 1, residues 110 to 165; numbered along this chain, Q9UBX0 (parent)
chain: RPRTAFTQNQIEVLENVFRVNCYPGIDIREDLAQKLNLEEDRIQIWFQNRRAKLKR

Variants of: B1
Assay: abundance fitness (aPCA) (normalised: wild type 0, dead -1); higher = more abundant; growth selection in yeast, the domain comes from the species named
Details: Homo sapiens

Abundance fitness, by site and new letter:
R1: G -0.505, T -0.455, Y 0.406, V 0.134, C 0.12, A 0.352, S -0.482
L14: I -0.298, W -0.625, M -0.267, A -1.02, K -0.519, R -0.77, E -0.87, N -0.506, T -0.463, G -0.88
N21: V -0.578, W -0.608, S -0.454, A -1.03, R -0.948, L -0.807, Q -0.158, I -0.522, C -0.69, F -0.868, G -0.262, D -0.412, Y -0.592, M -0.058
C22: K -0.328, M 0.425, L -0.134, Y 0.009, T -0.013, R 0.054, D -0.021, I 0.076, V -0.392, S 0.187, W -0.066, G -0.182, P 0.079, F -0.467, Q 0.156, E 0.227, A -0.061
V13: P -0.596, A -0.272, M 0.618, L -0.543, Y -0.757, T -0.141, F -0.378, Q -0.184, K -0.458, N -0.278, D -0.757, C -0.149, I 0.467, S -0.224, H 0.023
A5: L 0.249, Q 0.384, R 0.132, N 0.391, H 0.164, W -0.21, D 0.653, K 0.412, C 0.377, Y 0.429, I 0.275, M 0.609, V 0.296, S 0.424, F 0.324, E 0.596, P 0.295
N9: A -0.169, V 0.017, E 0.288, H 0.148, L 0.045, Y 0.044, I 0.118, F -0.243, S -0.004, T -0.132, M 0.381, G -0.103, C -0.293, K -0.149, P -0.292, R -0.042, D 0.187
R3: Y 0.682, D 0.126, W -0.674, Q 0.27, M 0.15, K -0.089, T -0.013, C -0.462, E 0.24, H -0.433, I 0.485, A 0.182, N -0.145, S -0.181, G 0.178, F 0.376, L -0.008
E15: A -0.832, R -0.503, G -0.686, T -0.741, L -0.725, D -0.621, M -0.196, Y -0.528, P -0.499, H -0.463, S -0.854, V -0.81, C -0.567
R19: M -0.529, K -0.105, T -0.01, H -0.46, Y -0.614, I -0.327, F -0.467, G -0.452, V -0.142, C -0.354, Q -0.187, E -0.291, S -0.334, W -0.64
V17: T -0.151, I -0.091, M -0.197, A -0.06, W -0.923, F -0.562, R -0.84, Y -0.293, H -0.427, S -0.335, K -0.552, L -0.308, E -0.372, Q -0.359, P -0.743
V20: W -0.436, H -0.021, I 0.077, T -0.03, A -0.052, N 0.208, D 0.136, F 0.333, M -0.091, L -0.186, C -0.218, R -0.118, G -0.157, S 0.072, E -0.1, K 0.106, Y -0.667
T4: Y -0.163, M 0.634, D -0.192, E 0.402, K 0.116, N -0.067, C 0.74, A -0.164, R 0.171, I -0.007, P 0.125, S -0.187, W -0.501, F 0.052, V -0.003, G 0.129, Q 0.635, H 0.069
Q10: F -0.993, P -0.922, V -0.279, G -0.574, D -0.287, H -0.594, I -0.404, M 0.017, E -0.278, R -0.662, L -0.744
E12: F 0.203, G -0.525, V -0.137, Q 0.154, I -0.612, K 0.487, S 0.016, C -0.341, L -0.236, A -0.257, D 0.28, Y -0.264, T -0.009, P -1.07, N -0.148, W -0.704, R -0.346
F18: Q -0.891, R -0.71, C -0.625, Y -0.083, G -0.812, L -0.459, D -0.701, M -1.06, S -0.819, K -0.845, T -0.82, I -0.328
P2: F 0.425, T 0.126, C 0.048, A 0.028, Q 0.386, L 0.297, K 0.522, E 0.734, M 0.333, R -0.031, V 0.308, D 0.699, G 0.309, W -0.046, Y 0.772, H 0.545
Y23: D -0.23, C 0.05, Q -0.251, M -0.44, N 0.114, K -0.262, F -0.411, L -0.338, A 0.05, R -0.381
I11: M -0.652, W -0.292, T -0.187, Y -0.46, P -0.598, N 0.091, R -0.472, F -0.648, Q -0.114, G -0.891, D -0.072, V -0.145, K -0.237, A -0.344, E 0.274, C -0.628
N16: S -0.02, W -0.755, P -1, F -0.962, T -0.125, V -0.701, Y -0.56, Q -0.073, L -0.561, D -0.073, M -0.215, R -0.417, K -0.034, C -0.365, E -0.114
Q8: E -0.019, M -0.168, Y -0.264, F -0.441, S 0.002, P -0.082, W -0.598, D -0.094, A 0.158, H -0.373, V 0.122, C -0.183, G -0.416, K -0.179, T -0.244
T7: H -0.312, C -0.666, G -0.401, N -0.084, A -0.068, P -0.664, M -0.288, W -0.845, L -0.417, K -0.245, R -0.587, V -0.681, F -0.701, D 0.161, E -0.352, S 0.112
F6: M 0.123, K -0.703, I -0.075, V -0.155, A -0.865, R -0.688, T -0.859, D -0.599, G -0.797, N -0.454, W -0.365, Q -0.678, Y -0.065, S -0.791, C -0.673
